Laboratory results as given in US20060154340A1.

Target: trypsin
Assay: cell-based or functional assay

In the case of “TrxA-PI2JO fusion protein (thioredoxin fused to potato proteinase inhibitor II isomer PI2JO, from plasmid pKBEPI-5 in E. coli BL21trxB(DE3)) (from UniProt P0AA25 1-109)”, the Trypsin inhibition activity (hydrolysis of TAME by trypsin followed at 247 nm; one unit = amount causing 50% inhibition of trypsin) (Trypsin-Inhibition-Unit/mL) is reported as 1390.
